Data: PMC11180167

How the values were obtained:
[1] = target: ryanodine receptor 1 (RyR1) in porcine skeletal SR membranes (pig (endogenous in porcine skeletal muscle SR)) (UniProt P16960); experiment: co-sedimentation; 1-60 nM AF488-FKBP12.6 with SR membranes (0.02 mg/ml skeletal, 0.12 mg/mL cardiac), 90 min at 37 °C, 150 mM KCl, 20 mM K-PIPES pH 7.0, 5 mM GSH, 0.1 mg/ml BSA, 30 nM free Ca2+; bound and free separated at 100,000 x g; non-specific binding with 5 µM unlabeled FKBP12.6 (skeletal) or 20 µM tacrolimus (cardiac); bound AF488 read by fluorescence
[2] = target: cardiac muscle ryanodine receptor RyR2 in porcine cardiac SR membranes (pig (endogenous in porcine cardiac SR membranes)); experiment: co-sedimentation; cardiac SR membranes (0.12 mg/mL) incubated 90 min at 37 °C with 1-60 nM AF488-FKBP12.6 in 150 mM KCl, 20 mM K-PIPES pH 7.0, 5 mM GSH, 0.1 mg/ml BSA, 1 mM EGTA, 65 µM CaCl2 (30 nM free Ca2+); non-specific binding with 20 µM tacrolimus; bound and free separated at 100,000 x g for 25 min; fluorescence of the pellet; Kd from Hill fit, n = 5
[3] = target: skeletal muscle ryanodine receptor RyR1 in porcine skeletal SR membranes (pig (endogenous in porcine skeletal SR membranes)) (UniProt P16960); experiment: co-sedimentation; skeletal SR membranes (0.02 mg/ml) incubated 90 min at 37 °C with 1-60 nM AF488-FKBP12.6 in 150 mM KCl, 20 mM K-PIPES pH 7.0, 5 mM GSH, 0.1 mg/ml BSA, 1 mM EGTA, 65 µM CaCl2 (30 nM free Ca2+); non-specific binding with 5 µM unlabeled FKBP12.6; bound and free separated at 100,000 x g for 25 min; fluorescence of the pellet; Kd from Hill fit, n = 3
[4] = target: ryanodine receptor 1 (RyR1) in porcine skeletal SR membranes (pig (endogenous in porcine skeletal muscle SR)) (UniProt P16960)

| Kd [1] | Kd [2] | Kd [3] | [^3H]ryanodine binding as an index of channel activity, 800 nM CaM, 30 nM Ca2+: increase [4] | Substance |
| --- | --- | --- | --- | --- |
| 12.6 nM | – | – | – | AF488-G1C-FKBP12.6 (natural protein) |
| 7.3 nM | – | – | – | AF488-T6C-FKBP12.6 (natural protein) |
| – | 1.6 nM | 4.9 nM | – | AF488-labeled E32C FKBP12.6 (null-cysteine background) (natural protein) |
| – | 5 nM | – | – | AF488-labeled G1C FKBP12.6 (null-cysteine background) (natural protein) |
| – | 3.7 nM | 4.7 nM | – | AF488-labeled K44C FKBP12.6 (null-cysteine background) (natural protein) |
| – | 2.3 nM | 3.9 nM | – | AF488-labeled Q65C FKBP12.6 (null-cysteine background) (natural protein) |
| – | 3.6 nM | 6.4 nM | – | AF488-labeled R49C FKBP12.6 (null-cysteine background) (natural protein) |
| – | 2.7 nM | – | – | AF488-labeled T6C FKBP12.6 (null-cysteine background) (natural protein) |
| – | 3.2 nM | 3.7 nM | – | AF488-labeled T14C FKBP12.6 (null-cysteine background) (natural protein) |
| – | 1.9 nM | 5.8 nM | – | AF488-labeled T85C FKBP12.6 (null-cysteine background) (natural protein) |
| – | – | – | 20 fold | unlabeled WT-CaM (from UniProt P0DP23 1-149) (natural protein) |
